Results published in patent US20260176358A1 (JIANGSU HENGRUI PHARMACEUTICALS, published 2026).
Like-named read-outs stand apart in the source and are kept apart here.

Legend:
[1] = biological target: T1, PACAP38 (UniProt P18509 132-169, biotinylated in the ELISAs); test: cell-based or functional assay
T1 peptide (looked up): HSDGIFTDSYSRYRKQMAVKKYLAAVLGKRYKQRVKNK

[2] = biological target: T1, PACAP38; test: cell-based or functional assay
[3] = biological target: T2, VIP (UniProt P01282 125-152, biotinylated in the ELISA); test: ELISA, biotinylated VIP on streptavidin plate
T2 construct: also called vasoactive intestinal peptide
T2 peptide (looked up): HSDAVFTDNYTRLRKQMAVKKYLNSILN
Protocol: (§1) In this test example, the abilities of the chimeric antibodies and humanized antibodies of C1 #, C9 #, C21 #, and C28 #to bind to human CGRP and rat CGRP were assessed using ELISAs. Plates were coated with […] human CGRP and rat CGRP, respectively, and blocked, and the antibodies, serially diluted, were then added. The plates were incubated for 1 h and washed, and a horseradish peroxidase-labeled anti-human Fc secondary antibody was then added. After incubation, color development was performed. […] The plates were incubated for 1 h and washed, and the antibodies, serially diluted, were then added. The plates were incubated for 1 h and washed, and a horseradish peroxidase-labeled streptavidin secondary antibody was then added. After incubation, color development was performed.

[4] = biological target: T1, PACAP38; test: ELISA, biotinylated peptide on streptavidin plate
Protocol: as §1

[5] = biological target: T3, PACAP27 (UniProt P18509 132-158, biotinylated in the ELISAs); test: ELISA, biotinylated peptide on streptavidin plate
T3 peptide (looked up): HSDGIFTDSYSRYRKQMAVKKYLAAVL
Protocol: as §1

[6] = biological target: T1, PACAP38; test: competition ELISA, biotinylated PACAP38 to coated PAC1-Fc
Protocol: (§2) The plates were incubated for 1 h and washed, and a horseradish peroxidase-labeled streptavidin secondary antibody was then added. After incubation, color development was performed.

[7] = biological target: T1, PACAP38; test: competition ELISA, biotinylated PACAP38 to coated VPAC1-Fc
Protocol: as §2

[8] = biological target: T1, PACAP38; test: competition ELISA, biotinylated PACAP38 to coated VPAC2-Fc
Protocol: as §2

[9] = biological target: T1, PACAP38; test: ELISA, antibody on coated anti-human Fc, biotinylated peptide
Protocol: (§3) Plates were coated with 1 μg/mL anti-human Fc and blocked, and the antibodies, serially diluted, were added. […] The plates were incubated for 1 h and washed, and a horseradish peroxidase-labeled streptavidin secondary antibody was then added. After incubation, color development was performed.

[10] = biological target: T3, PACAP27; test: as above
Protocol: as §3

IC50, inhibition of cAMP production in SH-SY5Y cells [1]: 4.02 nM
IC50, inhibition of cAMP production in SH-SY5Y cells [2]: 2.4 nM
binding result [3]: no binding
EC50 [4]: 0.09 nM
EC50 [5]: 0.2 nM
IC50 [6]: 0.67 nM
IC50 [7]: 0.58 nM
IC50 [8]: 0.4 nM
EC50 [9]: 0.13 nM
EC50 [10]: 0.16 nM
B1: P14H2L3 (antibody, human IgG1, kappa, V domains shown)
VH: EVQLVESGGGLVQPGGSLRLSCAASGFAFNNYDMSWVRQAPGKGLEWVATITGGGSYTWYPDSVKGRFTISRDNAKNSLYLQMNSLRAEDTAVYYCARLTGYDQAGAMDYWGQGTTVTVSS
VL: DIVLTQSPDSLAVSLGERATINCKASQSVDYDGDSYMTWYQQKPGQPPKLLIYAASHLDSGIPDRFSGSGSGTDFTLTISSLQAEDVAVYYCQQSNEDPWTFGGGTKVEIKR
